One molecule from patent US20250250587A1 (published 2025) can be followed below.

The test deals with T1, Neo12 (neoantigen; source protein not named) peptide on HLA-A*02:01 (human).
T1 peptide: YLTHRVDVI
Description: multimer staining.

B1: Neo12 neoTCR (TCR, V domains shown)
Valpha: QKEVEQDPGPLSVPEGAIVSLNCTYSNSAFQYFMWYRQYSRKGPELLMYTYSSGNKEDGRFTAQVDKSSKYISLFIRDSQPSDSATYLCAMSEDYKLSFGAGTTVTVRA
Vbeta: ETGVTQTPRHLVMGMTNKKSLKCEQHLGHNAMYWYKQSAKKPLELMFVYSLEERVENNSVPSRFSPECPNSSHLFLHLHTLQPEDSALYLCASSQSRGAQQYFGPGTRLTVT
For B1, the binding result is given as “recognises”.
